The target of this assay is UbAMC (Homo sapiens (Human)) (UniProt P0CG48).

For GST-Bap-1 (enzyme), the Km, fluorogenic ubiquitin cleavage assay amounted to 0.5 µM.

Source of the values: patent US20060051755A1.
